Experimental data taken from US20240409645A1 (DUALYX, published 2024).

B1: DC00086 (other)
chain 1: EVQLVESGGGLVQAGGSLRLSCAASGGSIYTYNMGWFRQAPGKEREFVAGTLWSGGDSVYADFAKGRFTLSRENAKNTLYLQMNSLKPEDTATYYCAIDPLSLTSDWRVDELSSWGKGTLVTVSSDKTHTCPPCPAPEAAGGPSVFLFPPKPKDTLMISRTPEVTCVVVDVSHEDPEVKFNWYVDGVEVHNAKTKPREEQYNSTYRVVSVLTVLHQDWLNGKEYKCKVSNKALGAPIEKTISKAKGQPREPQVYTLPPSRDELTKNQVSLTCLVKGFYPSDIAVEWESNGQPENNYKTTPPVLDSDGSFLLYSKLTVDKSRWQQGNVFSCSVMHEALHNHYTQKSLSLSPGK
chain 2: QVQLVESGGGLVQPGGSLRLSCATSGFTFRNNFMSWVRQAPGKGLEWVSTISYGGESTTYAESVKGRFTISRDNAKNTLYLQMNNLKPEDTAVYYCAKATSYDSIRSGSRGQGTQVTVSSGGGGSGGGGSGGGGSQVQLVESGGGLVQAGGSLTLSCAAPGRTFGTDVVGWFRQAPGKEREFVASISRSGDGIYYDDSVKGRFTISRNNAWNTVNLQMNSLKVEDTAVYYCAAGDGWSTYDYWGQGTQVTVSSGGGGSGGGGSGGGGSEVQLVESGGGLVQTGGSLRLSCAASGGTFSRDAMAWFRQVPGKEREFVALISWSGATTNYADSVKGRFAISRDNGKNTVYLQMNRLKPADTAIYYCAADRRPMGSRSYFEPTEYDDWGQGTQVTVSSGGGGSGGGGSGGGGSDKTHTCPPCPAPEAAGGPSVFLFPPKPKDTLMISRTPEVTCVVVDVSHEDPEVKFNWYVDGVEVHNAKTKPREEQYNSTYRVVSVLTVLHQDWLNGKEYKCKVSNKALGAPIEKTISKAKGQPREPQVYTLPPSRDELTKNQVSLTCLVKGFYPSDIAVEWESNGQPENNYKTTPPVLDSDGSFFLYSRLTVDKSRWQQGNVFSCSVMHEALHNHYTQKSLSLSPGK
B2: DC00087 (other)
chain 1: B1 chain 1
chain 2: QVQLVESGGGLVQPGGSLRLSCATSGFTFRNNFMSWVRQAPGKGLEWVSTISYGGESTTYAESVKGRFTISRDNAKNTLYLQMNNLKPEDTAVYYCAKATSYDSIRSGSRGQGTQVTVSSGGGGSGGGGSGGGGSEVQLVESGGGLVQTGGSLRLSCAASGGTFSRDAMAWFRQVPGKEREFVALISWSGATTNYADSVKGRFAISRDNGKNTVYLQMNRLKPADTAIYYCAADRRPMGSRSYFEPTEYDDWGQGTQVTVSSGGGGSGGGGSGGGGSQVQLVESGGGLVQAGGSLTLSCAAPGRTFGTDVVGWFRQAPGKEREFVASISRSGDGIYYDDSVKGRFTISRNNAWNTVNLQMNSLKVEDTAVYYCAAGDGWSTYDYWGQGTQVTVSSGGGGSGGGGSGGGGSDKTHTCPPCPAPEAAGGPSVFLFPPKPKDTLMISRTPEVTCVVVDVSHEDPEVKFNWYVDGVEVHNAKTKPREEQYNSTYRVVSVLTVLHQDWLNGKEYKCKVSNKALGAPIEKTISKAKGQPREPQVYTLPPSRDELTKNQVSLTCLVKGFYPSDIAVEWESNGQPENNYKTTPPVLDSDGSFFLYSRLTVDKSRWQQGNVFSCSVMHEALHNHYTQKSLSLSPGK
B3: DC00091 (other)
chain 1: QLQLVESGGGLVQAGDSLRLSCAASGFNFGWHAMGWFRQAPGKEREFVATITWTGRDTYYADSVRGRFTISKDNAKDTLFLQMNSLRPDDTGVYYCAKARERATWAYSEDDCDYWGQGTQVTVSSDKTHTCPPCPAPEAAGGPSVFLFPPKPKDTLMISRTPEVTCVVVDVSHEDPEVKFNWYVDGVEVHNAKTKPREEQYNSTYRVVSVLTVLHQDWLNGKEYKCKVSNKALGAPIEKTISKAKGQPREPQVYTLPPSRDELTKNQVSLTCLVKGFYPSDIAVEWESNGQPENNYKTTPPVLDSDGSFLLYSKLTVDKSRWQQGNVFSCSVMHEALHNHYTQKSLSLSPGK
chain 2: B1 chain 2
B4: DC00090 (other)
chain 1: B3 chain 1
chain 2: EVQLVESGGGLVQTGGSLRLSCAASGGTFSRDAMAWFRQVPGKEREFVALISWSGATTNYADSVKGRFAISRDNGKNTVYLQMNRLKPADTAIYYCAADRRPMGSRSYFEPTEYDDWGQGTQVTVSSGGGGSGGGGSGGGGSQVQLVESGGGLVQPGGSLRLSCATSGFTFRNNFMSWVRQAPGKGLEWVSTISYGGESTTYAESVKGRFTISRDNAKNTLYLQMNNLKPEDTAVYYCAKATSYDSIRSGSRGQGTQVTVSSGGGGSGGGGSGGGGSQVQLVESGGGLVQAGGSLTLSCAAPGRTFGTDVVGWFRQAPGKEREFVASISRSGDGIYYDDSVKGRFTISRNNAWNTVNLQMNSLKVEDTAVYYCAAGDGWSTYDYWGQGTQVTVSSGGGGSGGGGSGGGGSDKTHTCPPCPAPEAAGGPSVFLFPPKPKDTLMISRTPEVTCVVVDVSHEDPEVKFNWYVDGVEVHNAKTKPREEQYNSTYRVVSVLTVLHQDWLNGKEYKCKVSNKALGAPIEKTISKAKGQPREPQVYTLPPSRDELTKNQVSLTCLVKGFYPSDIAVEWESNGQPENNYKTTPPVLDSDGSFFLYSRLTVDKSRWQQGNVFSCSVMHEALHNHYTQKSLSLSPGK
B5: DC00092 (other)
chain 1: B3 chain 1
chain 2: B2 chain 2

Biological target: T1, human IL-2 receptor (IL-2Rα/IL-2Rβ/γc) (human, UniProt P01589 22-272; P14784 27-551; P31785 23-369)
T1 sequence 1: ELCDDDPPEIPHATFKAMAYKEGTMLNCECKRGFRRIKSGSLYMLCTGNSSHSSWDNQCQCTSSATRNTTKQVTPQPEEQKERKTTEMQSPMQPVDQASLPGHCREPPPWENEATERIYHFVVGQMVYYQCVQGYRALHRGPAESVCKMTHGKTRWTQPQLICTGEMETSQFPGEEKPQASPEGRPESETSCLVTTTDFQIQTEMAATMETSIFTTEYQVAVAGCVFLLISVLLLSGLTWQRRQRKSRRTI
T1 sequence 2: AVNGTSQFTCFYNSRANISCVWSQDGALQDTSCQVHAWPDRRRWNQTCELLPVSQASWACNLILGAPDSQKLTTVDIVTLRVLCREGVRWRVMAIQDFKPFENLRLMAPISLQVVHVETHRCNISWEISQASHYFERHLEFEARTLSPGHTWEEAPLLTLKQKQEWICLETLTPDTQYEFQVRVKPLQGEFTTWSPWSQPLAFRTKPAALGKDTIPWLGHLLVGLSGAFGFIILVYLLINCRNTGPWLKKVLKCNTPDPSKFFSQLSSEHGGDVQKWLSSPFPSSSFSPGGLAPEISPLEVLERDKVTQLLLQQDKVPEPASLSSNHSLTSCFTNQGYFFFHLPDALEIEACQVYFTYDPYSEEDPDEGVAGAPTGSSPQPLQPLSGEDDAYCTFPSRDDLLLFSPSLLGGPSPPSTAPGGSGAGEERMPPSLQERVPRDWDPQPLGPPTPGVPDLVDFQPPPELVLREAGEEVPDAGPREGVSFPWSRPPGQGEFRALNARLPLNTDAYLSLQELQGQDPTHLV
T1 sequence 3: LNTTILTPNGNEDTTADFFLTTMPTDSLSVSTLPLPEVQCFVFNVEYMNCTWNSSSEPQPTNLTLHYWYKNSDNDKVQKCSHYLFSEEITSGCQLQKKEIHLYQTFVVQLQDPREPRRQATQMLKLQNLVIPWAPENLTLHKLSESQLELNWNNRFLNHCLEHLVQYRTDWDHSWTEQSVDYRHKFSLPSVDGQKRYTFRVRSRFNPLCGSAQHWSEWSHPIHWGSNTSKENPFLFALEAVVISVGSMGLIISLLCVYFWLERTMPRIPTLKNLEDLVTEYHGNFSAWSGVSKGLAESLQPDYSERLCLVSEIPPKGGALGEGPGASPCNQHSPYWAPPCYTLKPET
Assay: cell-based or functional assay

Point of comparison: B3, “EC50 (nM) pSTAT5, NK, human PBMCs” value 0.307 nM. Against it:
- B1 — lower, 0.187 nM
- B2 — lower, 0.00972 nM
- B4 — higher, 0.572 nM

Point of comparison: B1, “EC50 (nM) pSTAT5, Treg, human PBMCs” value 0.00441 nM. Against it:
- B3 — lower, < 0.1 pM
- B4 — lower, < 0.1 pM
- B5 — lower, < 0.1 pM

Point of comparison: B1, “Fold Max signal (% pSTAT5+) Treg/NK” value 9 fold. Against it:
- B2 — lower, 3 fold
- B3 — lower, 5 fold
- B4 — the same, 9 fold
- B5 — lower, 6 fold

Point of comparison: B3, “Max signal (% pSTAT5+), NK” value 14.5 % pSTAT5+. Against it:
- B1 — lower, 4.9 % pSTAT5+
- B2 — lower, 1.4 % pSTAT5+
- B4 — lower, 2.67 % pSTAT5+
- B5 — lower, 4.82 % pSTAT5+

Point of comparison: B2, “Max signal (% pSTAT5+), Treg” value 4.37 % pSTAT5+. Against it:
- B1 — higher, 44.1 % pSTAT5+
- B3 — higher, 67.7 % pSTAT5+
- B4 — higher, 23.5 % pSTAT5+
- B5 — higher, 26.7 % pSTAT5+

Point of comparison: B1, “fold EC50 NK/Treg” value 42 fold. Against it:
- B3 — higher, > 3070 fold
- B4 — higher, > 5720 fold
